This note sets out measurements from patent US20040023916A1 (NATIONAL INSTITUTES OF HEALTH NIH, published 2004).

The test concerns the target T1, mouse Plasma Cell Membrane Glycoprotein-1 (PC-1) (mouse, UniProt P06802 1-906, limits assumed).
T1 construct: Measured as NTPPPH activity, which in these cells also includes the isozyme B10; also called Enpp1; NPP1
T1 sequence (looked up): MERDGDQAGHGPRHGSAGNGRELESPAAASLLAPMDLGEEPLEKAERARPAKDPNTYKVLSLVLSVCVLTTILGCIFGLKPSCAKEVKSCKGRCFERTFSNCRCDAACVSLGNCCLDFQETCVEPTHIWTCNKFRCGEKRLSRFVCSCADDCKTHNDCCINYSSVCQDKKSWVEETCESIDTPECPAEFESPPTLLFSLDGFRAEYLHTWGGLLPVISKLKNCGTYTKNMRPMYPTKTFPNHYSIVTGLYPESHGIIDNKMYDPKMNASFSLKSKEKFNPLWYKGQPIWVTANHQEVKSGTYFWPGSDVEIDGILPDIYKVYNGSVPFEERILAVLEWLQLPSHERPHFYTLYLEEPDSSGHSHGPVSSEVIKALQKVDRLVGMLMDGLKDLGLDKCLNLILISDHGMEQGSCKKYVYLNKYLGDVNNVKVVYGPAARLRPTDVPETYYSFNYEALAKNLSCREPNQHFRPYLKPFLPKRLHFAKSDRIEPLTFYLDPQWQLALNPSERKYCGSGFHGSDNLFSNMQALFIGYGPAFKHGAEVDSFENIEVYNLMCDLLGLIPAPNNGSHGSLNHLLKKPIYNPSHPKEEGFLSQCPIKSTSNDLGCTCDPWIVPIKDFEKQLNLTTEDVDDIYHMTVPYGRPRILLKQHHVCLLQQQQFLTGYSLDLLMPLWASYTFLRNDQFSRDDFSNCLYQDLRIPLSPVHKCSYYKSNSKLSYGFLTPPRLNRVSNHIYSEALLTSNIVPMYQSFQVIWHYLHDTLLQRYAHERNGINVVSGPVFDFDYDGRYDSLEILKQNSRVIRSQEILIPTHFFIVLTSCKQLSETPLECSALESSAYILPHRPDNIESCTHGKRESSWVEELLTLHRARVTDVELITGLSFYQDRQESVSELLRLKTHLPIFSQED
The test is described as follows: co-immunoprecipitation from osteoblast cell lysates, enzyme activity on beads. The source says:
Paradoxically, transfection of wild-type TNAP was associated with a significant increase in cell-associated NTPPPH, and an even greater increase in MV fraction-associated NTPPPH activity in MC3T3 cells, but no significant change in activity of transglutaminase activity, which served as a control enzyme for these experiments. […] Specifically, immunoprecipitation of TNAP from osteoblast cell lysates isolated >85% of the TNAP activity, but was not associated with any co-immunoprecipitation of NTPPPH activity (starting mean cell lysate NTPPPH 1.7 Units, and alkaline phosphatase 4.3 Units; beads after immunoprecipitation with antibody to TNAP had mean of 0.09 Units NTPPPH and 4.1 Units alkaline phosphatase; beads after immunoprecipitation with antibody to PC-1 had mean of 1.3 Units NTPPPH and 0.11 Units alkaline phosphatase, n=5).

B1: mouse tissue-nonspecific alkaline phosphatase (TNAP) (enzyme, UniProt P09242 18-501, looked up)
chain: FVPEKERDPSYWRQQAQETLKNALKLQKLNTNVAKNVIMFLGDGMGVSTVTAARILKGQLHHNTGEETRLEMDKFPFVALSKTYNTNAQVPDSAGTATAYLCGVKANEGTVGVSAATERTRCNTTQGNEVTSILRWAKDAGKSVGIVTTTRVNHATPSAAYAHSADRDWYSDNEMPPEALSQGCKDIAYQLMHNIKDIDVIMGGGRKYMYPKNRTDVEYELDEKARGTRLDGLDLISIWKSFKPRHKHSHYVWNRTELLALDPSRVDYLLGLFEPGDMQYELNRNNLTDPSLSEMVEVALRILTKNLKGFFLLVEGGRIDHGHHEGKAKQALHEAVEMDQAIGKAGAMTSQKDTLTVVTADHSHVFTFGGYTPRGNSIFGLAPMVSDTDKKPFTAILYGNGPGYKVVDGERENVSMVDYAHNNYQAQSAVPLRHETHGGEDVAVFAKGPMAHLLHGVHEQNYIPHVMAYASCIGANLDHCAWAG
notes: The lysates are called only 'osteoblast cell lysates'; Some MC3T3 cells were transfected with human TNAP, so the species in this experiment is not certain; also called Akp2
For the molecule B1, the binding result is on record as “no binding”.
